This note sets out measurements from patent US20170342151A1 (Memorial Sloan Kettering, published 2017).

Read-outs that look alike come from different tables or passages of the source.

Assay [1] addresses T1, D2.8.11, a peptide epitope for murine 763 (human).
T1 construct: also called antigen D2.8.11; peptide D2.8.11
T1 chain: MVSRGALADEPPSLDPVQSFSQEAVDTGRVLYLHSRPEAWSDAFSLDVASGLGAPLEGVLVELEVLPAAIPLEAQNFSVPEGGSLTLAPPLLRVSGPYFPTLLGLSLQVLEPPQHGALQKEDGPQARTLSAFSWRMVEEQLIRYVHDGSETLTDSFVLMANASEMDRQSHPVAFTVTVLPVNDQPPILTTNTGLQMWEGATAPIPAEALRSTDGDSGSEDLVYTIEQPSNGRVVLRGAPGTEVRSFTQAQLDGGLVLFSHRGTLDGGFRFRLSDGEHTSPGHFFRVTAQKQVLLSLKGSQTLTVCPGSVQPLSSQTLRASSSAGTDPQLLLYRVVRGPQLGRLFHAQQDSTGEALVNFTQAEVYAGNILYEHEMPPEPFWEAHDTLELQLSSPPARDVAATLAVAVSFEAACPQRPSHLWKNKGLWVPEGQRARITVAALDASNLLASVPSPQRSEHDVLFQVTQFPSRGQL
The assay is described as follows: SPR, Biacore T-100, D2.8.11 on CM5 chip, bivalent analyte model. As to the method: (§1) CMS sensor chip (Research grade) and related reagents were purchased from Biacore USA (Piscataway, N.J.). […] The system first run 20× cycles of buffer only to get stable baseline levels. […] Samples (60 μL) were injected over the sensor surface at a flow rate of 30 μL/min over 2 min. Association time was set for one minute; dissociation time was set for from five minutes to 30 minutes. Following completion of the association phase, dissociation was monitored in HBS-E buffer containing 250 mM NaCl at the same flow rate. At the end of each cycle, the surface was regenerated using 50 μL 20 mM NaOH at a flow rate of 50 μL/min over one minute and 100 μL 4M MgCl₂ at a flow rate of 50 μL/min over two minutes.
In general terms: In SPR one partner is held on a chip, and binding of the other changes the refractive index at the surface.

The target of assay [2] is T2, anti-763 idiotype antibody MK2-23.
T2 construct: Immobilized on the CM5 chip; also called anti-idiotype MK2-23
In words: SPR, Biacore T-100, MK2-23 on CM5 chip, monovalent analyte model. As to the method: as §1

For assay [3] the target is unchanged. The assay is described as above. As to the method: as §1
The source holds these as a separate data set.

For assay [4], the target named is T1, D2.8.11, a peptide epitope for murine …. The assay is described as follows: SPR, Biacore T-100.
The target of assay [5] is T3, human chondroitin sulfate proteoglycan 4 (CSPG4) on cells (human, UniProt Q6UVK1 30-2322).
T3 construct: Target on CSPG4-positive M14 cells (FACS, cell ELISA) and in frozen human tissue sections (IHC); also called HMW-MAA; MCSP
T3 sequence (Q6UVK1 30-2322 limits assumed): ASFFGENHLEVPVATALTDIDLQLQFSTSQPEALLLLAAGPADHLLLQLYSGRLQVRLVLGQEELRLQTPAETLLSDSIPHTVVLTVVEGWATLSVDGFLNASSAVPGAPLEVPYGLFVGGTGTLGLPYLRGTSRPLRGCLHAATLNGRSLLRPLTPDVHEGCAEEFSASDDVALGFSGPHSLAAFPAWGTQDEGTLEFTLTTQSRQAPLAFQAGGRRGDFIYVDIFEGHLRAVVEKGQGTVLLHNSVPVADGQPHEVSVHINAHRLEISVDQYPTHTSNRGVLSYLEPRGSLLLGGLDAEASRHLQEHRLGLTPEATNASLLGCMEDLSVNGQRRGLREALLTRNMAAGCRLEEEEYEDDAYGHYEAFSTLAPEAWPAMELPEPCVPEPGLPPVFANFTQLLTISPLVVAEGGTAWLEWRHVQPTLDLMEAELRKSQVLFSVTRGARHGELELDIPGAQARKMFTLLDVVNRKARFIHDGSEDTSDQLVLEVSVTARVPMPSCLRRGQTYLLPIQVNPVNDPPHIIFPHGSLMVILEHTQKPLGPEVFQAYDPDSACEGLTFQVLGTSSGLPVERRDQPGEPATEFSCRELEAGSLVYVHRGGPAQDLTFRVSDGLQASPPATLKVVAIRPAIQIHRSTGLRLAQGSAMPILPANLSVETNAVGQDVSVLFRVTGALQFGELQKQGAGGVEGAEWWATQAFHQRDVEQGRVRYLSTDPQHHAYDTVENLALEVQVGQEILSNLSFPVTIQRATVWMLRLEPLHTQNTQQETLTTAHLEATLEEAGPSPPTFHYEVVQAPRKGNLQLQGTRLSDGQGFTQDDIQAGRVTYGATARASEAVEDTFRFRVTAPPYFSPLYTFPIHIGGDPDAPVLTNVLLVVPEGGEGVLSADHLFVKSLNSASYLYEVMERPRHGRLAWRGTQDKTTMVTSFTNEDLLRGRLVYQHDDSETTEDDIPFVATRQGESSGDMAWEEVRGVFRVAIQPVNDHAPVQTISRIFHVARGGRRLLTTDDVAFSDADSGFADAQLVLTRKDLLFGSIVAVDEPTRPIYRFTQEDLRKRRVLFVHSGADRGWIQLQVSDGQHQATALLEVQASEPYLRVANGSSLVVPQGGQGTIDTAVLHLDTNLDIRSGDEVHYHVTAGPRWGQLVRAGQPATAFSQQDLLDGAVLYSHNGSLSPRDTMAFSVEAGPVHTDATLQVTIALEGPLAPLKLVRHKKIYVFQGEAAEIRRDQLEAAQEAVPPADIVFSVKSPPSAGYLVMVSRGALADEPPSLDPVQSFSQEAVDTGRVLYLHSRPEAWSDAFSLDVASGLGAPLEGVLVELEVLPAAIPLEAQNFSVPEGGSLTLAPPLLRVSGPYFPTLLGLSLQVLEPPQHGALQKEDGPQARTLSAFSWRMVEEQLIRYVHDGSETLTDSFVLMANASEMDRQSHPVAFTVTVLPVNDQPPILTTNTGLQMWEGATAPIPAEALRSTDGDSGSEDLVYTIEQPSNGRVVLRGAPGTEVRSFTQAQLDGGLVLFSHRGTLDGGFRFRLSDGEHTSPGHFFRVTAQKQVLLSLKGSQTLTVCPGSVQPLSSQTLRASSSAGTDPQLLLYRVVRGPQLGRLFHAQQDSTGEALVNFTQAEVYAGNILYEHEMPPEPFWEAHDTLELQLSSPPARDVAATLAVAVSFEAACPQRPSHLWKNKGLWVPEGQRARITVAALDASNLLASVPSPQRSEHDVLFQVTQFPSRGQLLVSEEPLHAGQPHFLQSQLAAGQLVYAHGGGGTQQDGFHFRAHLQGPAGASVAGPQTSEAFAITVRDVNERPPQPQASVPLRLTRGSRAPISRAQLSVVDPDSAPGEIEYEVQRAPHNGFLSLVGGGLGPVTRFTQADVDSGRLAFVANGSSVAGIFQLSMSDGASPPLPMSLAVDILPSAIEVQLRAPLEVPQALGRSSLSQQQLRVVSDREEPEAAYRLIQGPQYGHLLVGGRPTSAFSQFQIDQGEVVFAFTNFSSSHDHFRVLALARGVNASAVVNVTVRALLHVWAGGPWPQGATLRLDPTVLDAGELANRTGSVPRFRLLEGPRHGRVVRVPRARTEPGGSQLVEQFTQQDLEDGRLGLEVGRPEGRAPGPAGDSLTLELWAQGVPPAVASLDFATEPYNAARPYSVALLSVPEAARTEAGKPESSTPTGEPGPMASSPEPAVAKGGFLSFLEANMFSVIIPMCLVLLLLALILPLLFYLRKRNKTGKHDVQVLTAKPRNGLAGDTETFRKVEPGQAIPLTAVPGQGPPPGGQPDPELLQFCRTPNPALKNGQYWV
In words: ELISA on M14 cell-coated plates, HRP goat anti-human secondary. As to the method: Hu763-IgG1 was also subjected to five cycles of a freeze and thaw process. […] Antigen binding was expressed as % of MFI of maximum binding at 5 μg. E, ELISA analysis of hu763-IgG1 and hu763-IgG1n on M14 cells coated plates. Binding was detected with HRP conjugated goat anti-human secondary antibody. Hu763-IgG1n was subjected to five cycles of a freeze and thaw process.
An ELISA method using coated M14 as antigen was also used to assay hu763-IgG1 and hu763-IgG1n binding (FIG. 3E). […] Hu763-IgG1n still bound to M14 cells well after subjected to five cycles of freezing and thawing process.
(In general: In an ELISA, binding on a coated surface is turned into a signal by an enzyme label.)

The target of assay [6] is CD3 antigen (surface plasmon resonance). The assay is described as follows: SPR, Biacore, two state reaction model.

B1: murine anti-CSPG4 antibody 763.74 (antibody, V domains shown)
VH: QIQLVQSGPELKKPGETVKISCKASGYTFTDYSMHWVKKTPGKGLKWLGWINTATGEPTYADDFKGRFAISLETSARTVYLQINNLRNEDTATYFCFSYYDYWGQGTTLTVS
VL: DIKLSQSPSILSVTPGETVSLSCRASQTIYKNLHWYQQKSHRSPRLLIKYGSDSISGIPSRFTGSGSGTDYTLNINSVKPEDEGIYYCLQGYSTPWTFGGGTKLEIK
notes: also called m763
Broadly, the koff is the first-order rate constant of dissociation. A higher koff goes with a short-lived complex. As usually defined, the kon is a measure of how fast the partners come together. Lower therefore signals slower complex formation. B1: the Kd was 1.34 nM in assay [1], 2.09 nM in assay [2], 0.582 nM in assay [3] and 1.3 nM in assay [4]. Moreover, the figures for the koff in assay [1], in assay [2] and in assay [3] were 3.89e-05 s⁻¹, 0.000163 s⁻¹ and 8.5e-05 s⁻¹, respectively. Moreover, the kon turned out to be 29000 M⁻¹ s⁻¹ in assay [1], 78200 M⁻¹ s⁻¹ in assay [2], 146000 M⁻¹ s⁻¹ in assay [3] and 29600 M⁻¹ s⁻¹ in assay [4].

B2: hu763IgG1n H2-L2, humanized 763 H2 and L2 in IgG1 format with variant glycosylation (antibody)
heavy: not shown
light: EIVLTQSPATLSVSPGETVTLSCRASQTIYKNLHWYQQKSGLSPRLLIKYGSDSISGIPARFSGSGSGTDYTLTINSVEPEDEGIYYCLQGYSTPWTFGQGTKLEIKRTVAAPSVFIFPPSDEQLKSGTASVVCLLNNFYPREAKVQWKVDNALQSGNSQESVTEQDSKDSTYSLSSTLTLSKADYEKHKVYACEVTHQGLSSPVTKSFNRGEC
modifications: variant Fc glycosylation from expression in GnT1-deficient CHO cells (78.3% mannose, 20.5% N-acetyl glucosamine, 1.2% glucose; no fucose)
notes: also called hu763-H2L2-IgG1n
On to B2, for which, in assay [1], the Kd came to 1.15 nM, the dissociation rate constant (koff) was 3.28e-05 s⁻¹ and the kon is 28500 M⁻¹ s⁻¹. The binding result in assay [5] is listed as “binds”. Further, in assay [3], the Kd stood at 0.449 nM, the koff was determined as 7.54e-05 s⁻¹ and the kon turned out to be 168000 M⁻¹ s⁻¹.

B3: hu763IgG1 H2-L2, humanized 763 H2 and L2 in IgG1 format (antibody)
heavy: not shown
light: EIVLTQSPATLSVSPGETVTLSCRASQTIYKNLHWYQQKSGLSPRLLIKYGSDSISGIPARFSGSGSGTDYTLTINSVEPEDEGIYYCLQGYSTPWTFGQGTKLEIKRTVAAPSVFIFPPSDEQLKSGTASVVCLLNNFYPREAKVQWKVDNALQSGNSQESVTEQDSKDSTYSLSSTLTLSKADYEKHKVYACEVTHQGLSSPVTKSFNRGEC
notes: also called parental hu763
In assay [1], B3 displayed a Kd of 1.29 nM, a dissociation rate constant (koff) of 3.81e-05 s⁻¹ and a kon of 29600 M⁻¹ s⁻¹. In assay [2], this molecule registered a Kd of 1.75 nM, a koff of 0.000181 s⁻¹ and a kon of 103000 M⁻¹ s⁻¹.

B4: hu763IgG4 H2-L2, humanized 763 H2 and L2 in IgG4 format (antibody)
heavy: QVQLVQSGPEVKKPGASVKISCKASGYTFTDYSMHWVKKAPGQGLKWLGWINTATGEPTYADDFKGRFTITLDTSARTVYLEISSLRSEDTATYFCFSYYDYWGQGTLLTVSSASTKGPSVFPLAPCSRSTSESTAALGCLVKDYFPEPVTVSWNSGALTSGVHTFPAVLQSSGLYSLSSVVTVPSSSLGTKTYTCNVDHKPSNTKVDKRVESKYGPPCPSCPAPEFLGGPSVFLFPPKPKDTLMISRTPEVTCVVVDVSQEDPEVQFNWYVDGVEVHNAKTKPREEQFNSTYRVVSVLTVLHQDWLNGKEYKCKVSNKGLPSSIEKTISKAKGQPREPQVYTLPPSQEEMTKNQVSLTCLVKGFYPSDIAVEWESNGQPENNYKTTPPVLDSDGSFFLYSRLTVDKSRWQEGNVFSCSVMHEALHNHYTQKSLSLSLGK
light: EIVLTQSPATLSVSPGETVTLSCRASQTIYKNLHWYQQKSGLSPRLLIKYGSDSISGIPARFSGSGSGTDYTLTINSVEPEDEGIYYCLQGYSTPWTFGQGTKLEIKRTVAAPSVFIFPPSDEQLKSGTASVVCLLNNFYPREAKVQWKVDNALQSGNSQESVTEQDSKDSTYSLSSTLTLSKADYEKHKVYACEVTHQGLSSPVTKSFNRGEC
In assay [1], B4 yielded a Kd of 1.22 nM, a koff of 3.5e-05 s⁻¹ and a kon of 28700 M⁻¹ s⁻¹. In assay [3], this molecule displayed a Kd of 0.48 nM, an off-rate (koff) of 8.01e-05 s⁻¹ and an on-rate constant (kon) of 167000 M⁻¹ s⁻¹.

B5: hu763-HC-OKT3, humanized 763 IgG1 with huOKT3 scFv on the C-terminus of the heavy chain (bispecific antibody)
heavy: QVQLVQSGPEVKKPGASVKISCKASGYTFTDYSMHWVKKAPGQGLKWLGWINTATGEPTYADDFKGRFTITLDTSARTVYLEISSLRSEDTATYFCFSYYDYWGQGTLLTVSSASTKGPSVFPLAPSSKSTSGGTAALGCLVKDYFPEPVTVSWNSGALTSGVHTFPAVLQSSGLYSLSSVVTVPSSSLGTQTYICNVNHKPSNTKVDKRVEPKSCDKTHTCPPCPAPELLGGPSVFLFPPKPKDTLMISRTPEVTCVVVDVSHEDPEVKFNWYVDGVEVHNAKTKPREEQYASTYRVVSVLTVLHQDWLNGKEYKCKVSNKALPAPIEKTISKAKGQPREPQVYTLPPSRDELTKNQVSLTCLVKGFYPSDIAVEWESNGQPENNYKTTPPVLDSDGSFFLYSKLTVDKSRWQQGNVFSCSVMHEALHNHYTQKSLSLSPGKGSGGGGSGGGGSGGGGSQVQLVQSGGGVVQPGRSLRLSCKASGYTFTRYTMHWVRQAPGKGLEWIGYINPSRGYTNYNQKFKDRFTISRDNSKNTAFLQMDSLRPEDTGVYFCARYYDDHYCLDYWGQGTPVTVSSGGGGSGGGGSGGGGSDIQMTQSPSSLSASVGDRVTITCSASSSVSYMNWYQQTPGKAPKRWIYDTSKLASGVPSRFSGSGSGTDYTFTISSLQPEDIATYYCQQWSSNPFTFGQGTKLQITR
light: EIVLTQSPATLSVSPGETVTLSCRASQTIYKNLHWYQQKSGLSPRLLIKYGSDSISGIPARFSGSGSGTDYTLTINSVEPEDEGIYYCLQGYSTPWTFGQGTKLEIKRTVAAPSVFIFPPSDEQLKSGTASVVCLLNNFYPREAKVQWKVDNALQSGNSQESVTEQDSKDSTYSLSSTLTLSKADYEKHKVYACEVTHQGLSSPVTKSFNRGEC
notes: IgG-scFv format, aglycosylated Fc (N297A); also called hu763-HC-huOKT3; hu763-BsAb
In assay [6], B5 had a Kd of 231 nM, a koff of 0.0696 s⁻¹ and an on-rate constant (kon) of 302000 M⁻¹ s⁻¹.

B6: ch763IgG1, chimeric 763 HC and LC in IgG1 format (antibody, V domains shown)
VH: QIQLVQSGPELKKPGETVKISCKASGYTFTDYSMHWVKKTPGKGLKWLGWINTATGEPTYADDFKGRFAISLETSARTVYLQINNLRNEDTATYFCFSYYDYWGQGTTLTVSA
VL: DIKLSQSPSILSVTPGETVSLSCRASQTIYKNLHWYQQKSHRSPRLLIKYGSDSISGIPSRFTGSGSGTDYTLNINSVKPEDEGIYYCLQGYSTPWTFGGGTKLEIKR
In assay [1], B6 gave a Kd of 84 nM, a dissociation rate constant (koff) of 0.00295 s⁻¹ and a kon of 35100 M⁻¹ s⁻¹. In assay [2], this molecule came in with a Kd of 1.89 nM, a koff of 0.000339 s⁻¹ and a kon of 179000 M⁻¹ s⁻¹.
